Experimental data as given in patent publication US20250368754A1 (KANAPH THERAPEUTICS, published 2025).

Experiments:
[1] = biological target: T1, recombinant human herpes virus entry mediator (HVEM) (human, UniProt Q92956 39-202); assay: sandwich ELISA: plate coated with recombinant human HVEM 1 ug/mL, fusion protein from 1 nM in serial dilution, detected with biotinylated recombinant human FAP and streptavidin conjugate, OD 450 nm
T1 construct: neither construct is described; also called human HVEM; recombinant human HVEM protein (R&D systems)
T1 sequence (looked up): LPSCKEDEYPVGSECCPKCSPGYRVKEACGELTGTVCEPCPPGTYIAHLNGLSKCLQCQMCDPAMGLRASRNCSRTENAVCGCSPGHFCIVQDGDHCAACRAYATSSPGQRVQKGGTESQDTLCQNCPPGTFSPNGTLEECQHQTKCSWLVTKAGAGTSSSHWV
Method: Considering that LIGHT of the fusion protein must bind to the herpes virus entry mediator (HVEM) for the action, it was confirmed that T3.01 binds to the recombinant human HVEM, as follows: [0370] (i) The recombinant human HVEM protein (R&D systems) was suspended at 1 μg/mL, dispensed in a 96-well immune plate, and treated for 24 hours. [0371] (ii) The wells were washed with a wash solution, and then blocking was performed for 1 hour with 1% BSA (bovine serum albumin, Sigma) solution. [0372] (iii) The wells were washed with a wash solution, and then T3.01, T3.14, T3.16, T3.17, T3.18 and T3.10, or T3.05, T3.06, T3.04, T3.14 and T3.10 were suspended at 1 nM and diluted by serial dilution. The wells were treated with the diluted T3.01, T3.14, T3.16, T3.17, T3.18 and T3.10, or T3.05, T3.06, T3.04, T3.14 and T3.10 for 2 hours. [0373] (iv) The wells were washed with a wash solution, and then treated with the human recombinant FAP-biotin diluted at 0.5 μg/mL for 2 hours. [0374] (v) The wells were washed with a wash solution, and then treated with streptavidin-RP for 20 minutes. [0375] (vi) The wells were washed with a wash solution, and then treated with a substrate solution for 20 minutes. [0376] (vii) The wells were treated with a stop solution, and the absorbance was measured at 450 nm.

[2] = biological target: T2, human FAP on HEK293-hFAP cells (human, UniProt Q12884 1-760); assay: flow cytometry on HEK293-hFAP cells, 1 µg protein, anti-human IgG detection
T2 construct: whole, on cells; also called human FAP-expressing cell line
T2 sequence (looked up): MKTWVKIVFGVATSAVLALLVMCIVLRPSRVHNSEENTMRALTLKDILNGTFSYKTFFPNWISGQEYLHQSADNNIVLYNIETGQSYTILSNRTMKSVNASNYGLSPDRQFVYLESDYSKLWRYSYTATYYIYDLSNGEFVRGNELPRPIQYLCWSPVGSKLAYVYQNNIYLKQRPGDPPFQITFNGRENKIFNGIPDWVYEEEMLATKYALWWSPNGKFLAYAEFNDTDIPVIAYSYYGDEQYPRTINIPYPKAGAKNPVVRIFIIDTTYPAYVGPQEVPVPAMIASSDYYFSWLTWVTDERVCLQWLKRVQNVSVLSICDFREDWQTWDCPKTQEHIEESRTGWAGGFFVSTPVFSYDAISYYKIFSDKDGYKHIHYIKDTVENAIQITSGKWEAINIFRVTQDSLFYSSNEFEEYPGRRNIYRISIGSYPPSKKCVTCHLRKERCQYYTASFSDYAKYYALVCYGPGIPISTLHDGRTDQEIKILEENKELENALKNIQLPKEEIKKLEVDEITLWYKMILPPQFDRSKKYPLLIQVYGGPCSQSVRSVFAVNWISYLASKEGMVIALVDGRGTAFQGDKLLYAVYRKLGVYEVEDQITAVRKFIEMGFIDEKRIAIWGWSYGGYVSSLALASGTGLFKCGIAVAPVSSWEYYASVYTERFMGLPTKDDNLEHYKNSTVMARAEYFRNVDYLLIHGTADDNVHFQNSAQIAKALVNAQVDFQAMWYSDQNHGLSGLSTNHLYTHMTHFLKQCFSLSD
Method: (§1) Specifically, the cell line was prepared by suspending in a FACS buffer solution at 1×10⁵ cells/100 μL, and treated with 1 μg each of T3.10, T3.01, T3.05, T3.06, T3.14, and T3.18. The cells were washed twice with a FACS buffer solution. The cells were stained with an anti-human IgG antibody (Biolegend). The negative control sample was stained only with an anti-human IgG antibody (Biolegend). The expression ratio of the stained cells was measured using BD LSR and analyzed using FlowJo software.

human LTβR on A375 cells = biological target: T3, human LTβR on A375 cells (human, UniProt P36941 31-435); assay: flow cytometry on A375 cells, anti-human IgG detection (axis TMEkine-PE); concentration not printed on the sheet
T3 construct: whole, on cells; Endogenous receptor of a human cell line; also called LTβR expressing A375 cells; LTβR expressing cell line
T3 sequence (P36941 31-435): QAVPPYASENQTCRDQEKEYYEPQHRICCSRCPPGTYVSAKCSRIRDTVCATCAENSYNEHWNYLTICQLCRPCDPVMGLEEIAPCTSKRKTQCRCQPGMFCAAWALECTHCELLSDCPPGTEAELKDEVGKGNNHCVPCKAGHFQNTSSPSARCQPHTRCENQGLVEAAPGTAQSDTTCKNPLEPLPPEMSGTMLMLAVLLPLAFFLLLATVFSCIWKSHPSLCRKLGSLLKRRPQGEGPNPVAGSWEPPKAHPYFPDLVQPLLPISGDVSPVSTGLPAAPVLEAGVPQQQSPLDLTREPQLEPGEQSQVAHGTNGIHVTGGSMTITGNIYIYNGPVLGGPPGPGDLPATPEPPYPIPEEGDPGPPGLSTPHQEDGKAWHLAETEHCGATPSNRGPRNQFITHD

[3] = biological target: T2, human FAP on HEK293-hFAP cells; assay: flow cytometry on HEK293-hFAP cells, 1 ug protein per 1x10^5 cells, anti-human IgG detection (axis TMEkine-PE)
Method: as §1

[4] = biological target: T4, recombinant human lymphotoxin beta receptor (LTβR) (human, UniProt P36941 28-227, limits assumed); assay: sandwich ELISA: plate coated with recombinant human LTbR 1 ug/mL, fusion protein from 1 nM in serial dilution, detected with biotinylated recombinant human FAP and streptavidin conjugate, OD 450 nm
T4 construct: neither construct is described; also called human LTβR; recombinant human LTβR protein
T4 sequence (P36941 28-227 limits assumed): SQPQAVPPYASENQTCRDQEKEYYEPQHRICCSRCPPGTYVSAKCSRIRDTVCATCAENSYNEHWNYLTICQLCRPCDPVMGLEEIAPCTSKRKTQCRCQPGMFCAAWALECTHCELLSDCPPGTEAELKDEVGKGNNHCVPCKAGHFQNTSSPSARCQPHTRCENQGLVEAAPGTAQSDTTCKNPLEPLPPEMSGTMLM
Method: (i) The recombinant human LTβR protein was suspended at 1 μg/mL, dispensed in a 96-well immune plate, and treated for 24 hours. [0380] (ii) The wells were washed with a wash solution, and then blocking was performed for 1 hour with 1% BSA (bovine serum albumin, Sigma) solution. [0381] (iii) The wells were washed with a wash solution, and then T3.01, T3.14, T3.16, T3.17, T3.18 and T3.10, or T3.05, T3.06, T3.04, T3.14 and T3.10 were suspended at 1 nM and diluted by serial dilution. The wells were treated with the diluted T3.01, T3.14, T3.16, T3.17, T3.18 and T3.10, or T3.05, T3.06, T3.04, T3.14 and T3.10 for 2 hours. […] (iv) The wells were washed with a wash solution, and then treated with the human recombinant FAP-biotin diluted at 0.5 μg/mL for 2 hours. [0383] (v) The wells were washed with a wash solution, and then treated with streptavidin-RP for 20 minutes. [0384] (vi) The wells were washed with a wash solution, and then treated with a substrate solution for 20 minutes. [0385] (vii) The wells were treated with a stop solution, and the absorbance was measured at 450 nm.

B1: T3.10 (anti-hu FAP/null, hu IgG1 DANG) (antibody)
heavy: QVQLVQSGAEVKKPGASVKVSCKTSRYTFTEYTIHWVRQAPGQRLEWIGGINPNNGIPNYNQKFKGRVTITVDTSASTAYMELSSLRSEDTAVYYCARRRIAYGYDEGHAMDYWGQGTLVTVSSASTKGPSVFPLAPSSKSTSGGTAALGCLVKDYFPEPVTVSWNSGALTSGVHTFPAVLQSSGLYSLSSVVTVPSSSLGTQTYICNVNHKPSNTKVDKKVEPKSCDKTHTCPPCPAPELLGGPSVFLFPPKPKDTLMISRTPEVTCVVVAVSHEDPEVKFNWYVDGVEVHNAKTKPREEQYGSTYRVVSVLTVLHQDWLNGKEYKCKVSNKALPAPIEKTISKAKGQPREPQVYTLPPSRDELTKNQVSLWCLVKGFYPSDIAVEWESNGQPENNYKTTPPVLDSDGSFFLYSKLTVDKSRWQQGNVFSCSVMHEALHNHYTQKSLSLSPGK
light: not shown
chain: not shown
notes: One-armed anti-FAP knob-into-hole antibody without LIGHT; used as the control for LIGHT activity
- binding result [1]: no binding (tested: 1000 pM)
- percent of cells bound [2]: ≥ 99%
- binding result (human LTβR on A375 cells): no binding
- percent of cells in the positive gate [3]: 99.3%
- binding result [4]: no binding (tested: 1000 pM)
